Experimental data: patent EP4786492A1 (Simcere Zaiming Pharmaceutical Co., Ltd., dated 2026)
Changes are numbered by the printed parent chain.

T1: human DLL3-his protein (human, UniProt Q9NYJ7 27-492)
T1 construct: also called human DLL3 protein; DLL3 antigen protein; not shown: His tag
T1 sequence: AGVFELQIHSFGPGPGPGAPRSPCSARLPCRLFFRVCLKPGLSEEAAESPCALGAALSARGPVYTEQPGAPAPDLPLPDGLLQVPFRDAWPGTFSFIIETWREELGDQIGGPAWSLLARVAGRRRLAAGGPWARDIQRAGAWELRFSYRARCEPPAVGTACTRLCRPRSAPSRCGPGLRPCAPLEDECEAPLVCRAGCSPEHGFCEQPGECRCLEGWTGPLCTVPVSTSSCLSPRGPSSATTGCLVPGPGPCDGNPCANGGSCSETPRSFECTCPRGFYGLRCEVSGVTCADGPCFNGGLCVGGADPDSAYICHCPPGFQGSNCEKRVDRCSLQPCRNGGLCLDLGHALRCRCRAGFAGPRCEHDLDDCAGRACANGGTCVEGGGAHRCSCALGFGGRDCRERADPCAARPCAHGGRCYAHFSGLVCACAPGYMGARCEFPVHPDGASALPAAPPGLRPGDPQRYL

T2: human DLL1 protein (human, UniProt O00548 18-540, limits assumed)
T2 construct: bought protein; construct and tag not described; also called hDLL1
T2 sequence (looked up): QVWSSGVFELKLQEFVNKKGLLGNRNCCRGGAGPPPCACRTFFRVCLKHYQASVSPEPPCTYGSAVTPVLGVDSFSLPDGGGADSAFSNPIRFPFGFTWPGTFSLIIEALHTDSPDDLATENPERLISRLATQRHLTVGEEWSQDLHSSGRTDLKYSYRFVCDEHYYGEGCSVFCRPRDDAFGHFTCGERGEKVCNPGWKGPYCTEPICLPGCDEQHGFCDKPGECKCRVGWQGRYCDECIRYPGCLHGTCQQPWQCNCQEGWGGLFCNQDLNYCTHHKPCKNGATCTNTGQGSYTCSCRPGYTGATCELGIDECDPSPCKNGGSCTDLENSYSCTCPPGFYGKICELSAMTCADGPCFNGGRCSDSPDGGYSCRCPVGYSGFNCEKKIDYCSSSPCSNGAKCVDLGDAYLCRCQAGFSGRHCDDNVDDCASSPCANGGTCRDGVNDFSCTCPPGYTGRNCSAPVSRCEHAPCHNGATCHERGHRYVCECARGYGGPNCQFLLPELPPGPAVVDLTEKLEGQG

T3: human DLL3 endogenously expressed on SHP77 and NCI-H82 cells (human, UniProt Q9NYJ7 27-618)
T3 construct: whole, on cells; cells endogenously expressing DLL3; also called SHP77 cells; SHP-77 cells
T3 sequence (looked up): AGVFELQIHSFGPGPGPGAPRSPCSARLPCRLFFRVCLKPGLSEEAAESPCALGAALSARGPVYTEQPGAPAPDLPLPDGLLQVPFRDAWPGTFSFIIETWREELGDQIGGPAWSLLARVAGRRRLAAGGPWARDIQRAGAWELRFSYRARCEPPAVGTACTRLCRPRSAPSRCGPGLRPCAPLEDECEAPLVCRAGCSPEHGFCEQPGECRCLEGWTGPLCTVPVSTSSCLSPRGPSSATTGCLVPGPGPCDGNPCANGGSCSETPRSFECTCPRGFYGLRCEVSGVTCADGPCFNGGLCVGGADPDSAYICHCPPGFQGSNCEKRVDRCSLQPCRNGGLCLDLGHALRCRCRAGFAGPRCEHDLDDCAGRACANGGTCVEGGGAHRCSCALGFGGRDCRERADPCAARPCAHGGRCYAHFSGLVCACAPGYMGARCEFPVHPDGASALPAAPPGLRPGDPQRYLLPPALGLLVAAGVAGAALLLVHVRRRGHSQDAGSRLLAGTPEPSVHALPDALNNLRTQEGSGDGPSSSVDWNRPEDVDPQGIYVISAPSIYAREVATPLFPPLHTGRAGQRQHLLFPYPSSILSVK

T4: human DLL3 on CHO-K1 hDLL3 cells (human, UniProt Q9NYJ7 27-492)
T4 construct: also called human DLL3 recombinant cell line
T4 sequence: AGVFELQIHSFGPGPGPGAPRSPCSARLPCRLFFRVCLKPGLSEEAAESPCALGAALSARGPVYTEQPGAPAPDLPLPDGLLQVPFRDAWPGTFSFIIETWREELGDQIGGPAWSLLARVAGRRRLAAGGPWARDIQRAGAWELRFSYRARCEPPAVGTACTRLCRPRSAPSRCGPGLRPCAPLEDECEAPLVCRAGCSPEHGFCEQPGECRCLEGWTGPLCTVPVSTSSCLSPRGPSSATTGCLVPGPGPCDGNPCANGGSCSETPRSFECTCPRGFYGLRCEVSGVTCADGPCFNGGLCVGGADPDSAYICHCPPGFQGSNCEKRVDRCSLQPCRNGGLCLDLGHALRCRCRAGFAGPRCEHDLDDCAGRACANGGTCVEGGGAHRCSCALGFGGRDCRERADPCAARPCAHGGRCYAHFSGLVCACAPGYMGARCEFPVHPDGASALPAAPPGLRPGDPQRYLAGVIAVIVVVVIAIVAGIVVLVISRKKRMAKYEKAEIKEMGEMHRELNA

T5: monkey DLL3 on CHO K1-cyno DLL3 cells (cynomolgus monkey)
T5 construct: also called monkey DLL3 recombinant cell line
T5 chain: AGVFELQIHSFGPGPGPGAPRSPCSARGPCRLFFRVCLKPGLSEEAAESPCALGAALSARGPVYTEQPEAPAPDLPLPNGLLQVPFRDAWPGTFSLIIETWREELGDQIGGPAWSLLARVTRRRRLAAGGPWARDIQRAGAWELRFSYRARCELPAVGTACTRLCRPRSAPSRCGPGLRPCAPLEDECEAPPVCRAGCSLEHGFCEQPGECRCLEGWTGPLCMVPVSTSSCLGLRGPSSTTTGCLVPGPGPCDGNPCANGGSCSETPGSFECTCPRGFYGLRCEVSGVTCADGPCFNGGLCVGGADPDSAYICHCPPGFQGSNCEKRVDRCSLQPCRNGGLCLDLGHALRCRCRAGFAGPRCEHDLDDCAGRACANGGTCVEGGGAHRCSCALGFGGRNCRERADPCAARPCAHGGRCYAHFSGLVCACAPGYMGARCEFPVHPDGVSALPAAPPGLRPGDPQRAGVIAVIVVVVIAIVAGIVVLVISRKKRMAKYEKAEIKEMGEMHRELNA

T6: mouse DLL3 on CHO K1-mDLL3 cells (mouse, UniProt O88516 33-490)
T6 construct: also called mouse DLL3 recombinant cell line
T6 sequence: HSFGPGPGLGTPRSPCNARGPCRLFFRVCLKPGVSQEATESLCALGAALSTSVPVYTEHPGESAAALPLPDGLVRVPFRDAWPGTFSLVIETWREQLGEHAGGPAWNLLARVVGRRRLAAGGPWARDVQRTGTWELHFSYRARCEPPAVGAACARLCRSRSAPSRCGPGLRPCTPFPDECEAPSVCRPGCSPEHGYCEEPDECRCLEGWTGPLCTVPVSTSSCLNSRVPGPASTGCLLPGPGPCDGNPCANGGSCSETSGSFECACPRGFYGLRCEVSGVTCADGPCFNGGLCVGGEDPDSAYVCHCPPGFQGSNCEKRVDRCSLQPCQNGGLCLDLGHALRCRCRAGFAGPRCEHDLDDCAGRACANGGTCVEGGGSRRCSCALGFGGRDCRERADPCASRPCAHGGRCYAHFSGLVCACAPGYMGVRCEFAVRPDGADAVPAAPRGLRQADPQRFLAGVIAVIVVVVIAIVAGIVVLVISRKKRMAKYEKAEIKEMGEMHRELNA

B1: mab004 scFv-hFc (Fc fusion)
scFv (part 1 of 2): DIVLTQSPASLAVSLGQRATISCRASESVDYDGDSYMNWYQQKPGQPPKLLIYVASNLESGIPARFSGSGSGTDFILNIHPVEEEDAATYYCLQSNEAPYTFGSGTKLEIK
scFv (part 2 of 2): QVQLQQPGAELVKPGASVKLSCKASGYTFTSYWINWVKQRPGQGLEWIGNIYPGSSSPNYNEKFKSKATLTVDTSSSTAYMQLSSLTSDDSAVYYCARSLLYAMDYWGQGTSVTVSS
notes: human-murine chimeric scFv-hFc, VL-linker-VH-human IgG1 Fc; not shown: linker; Fc fragment of human IgG1
B2: mab002 scFv-hFc (Fc fusion)
scFv (part 1 of 2): QIVLTQSPAIMSASPGEKVTMTCSARSSVSYMQWYQQKSGTSPKRWIYDTSKLASGVPARFSGSGSGTSYSLTISTMEAEDAATYYCQQWSSDPPTFGGGTKLEIK
scFv (part 2 of 2): QIQLVQSGPELKKPGETVKISCKASGYTFTNYGMNWLKQAPGKGLKWMGWINTYTGESTYADDFKGRFAFSLETSASTVYLQINNLKNEDMATYFCARMGDGYYDFTMDYWGQGTSVTVSS
notes: as for B1
B3: mab001 scFv-hFc (Fc fusion)
scFv (part 1 of 2): not shown
scFv (part 2 of 2): QIQLVQSGPELKKPGETVKISCKASGYTFTTYGMSWVKQAPGKGLKWMGWINTYSGVPTYADDFKGRFAFSLETSASTAYLQINNLKNEDTATYFCARIGDYDYGEYWGQGTLVTVSA
notes: as for B1
B4: mab016 scFv-hFc (Fc fusion)
scFv (part 1 of 2): DIVMTQSQKFMSTTIGDRVSITCKASQNVGTTVAWYQQKPGQSPNLLLYSTSNRFTGVPDRFTGSGSGTDFTLTITNMQSEDLADYFCQQYNNYPLTFGGGTKLEIK
scFv (part 2 of 2): EVNLEESGGGLVQPGGSMKLSCVASGFAFSNFWMQWVRQSPEKGLEWVAQIRLKSDNYAAHYAESVKGRFTISRDDSKSSVYLQLNNLRAEDTGTYYCTQGNWVGFAYWGQGTLVTVSA
notes: as for B1
B5: mab011 scFv-hFc (Fc fusion)
scFv (part 1 of 2): DIVLTQSPATLSVTPGDSVSLSCRASQSISNNLHWYQQKSHESPRLLIKYASQSISGIPSRFSGSGSGTDFTLSINSVETEDFGMYFCQQSNSWPWTFGGGTKLEIK
scFv (part 2 of 2): EVQLQQSGPELVKPGASVKISCKASGYTFTDYYMNWVKQSHGKSLEWIGDISPNYGGTNYNQKFKGKATLTVDKSSSTACMELRSLTSEDSAVYYCTRSFYYYGTGYDWYFDVWGTGTTVTVSS
notes: as for B1
B6: Hab008L1H5-hFc (Fc fusion)
scFv (part 1 of 2): DIQMTQSPSSLSASVGDRVTITCKASQNVGTAVAWYQQKPGKSPKLLIFSASIRYTGVPSRFSGSGSGTDFTLTISSLQPEDFATYYCQQYSSSPYTFGGGTKVEIK
scFv (part 2 of 2): EVQLVQSGAEVKKPGASVKVSCKASGYTFTDYYMNWVRRAPGQRLEWMGIINPYNGGTSYNQKFRGRVTITVDKSASTAYMELSSLRSEDTAVYYCSRYDYDYDVEGAMDYWGQGTTVTVSS
notes: humanized mab008, VL-linker-VH-human IgG1 Fc; also called Hab008 humanized molecule; not shown: linker; human IgG1 Fc fragment
B7: Hab008L3H2a-hFc (Fc fusion)
scFv (part 1 of 2): DIVMTQSPDSLAVSLGERATINCKASQNVGTAVAWYQQKPGQSPKLLIFSASIRYTGVPDRFSGSGSGTDFTLTISSLQAEDVAVYYCQQYSSSPYTFGGGTKVEIK
scFv (part 2 of 2): B6 scFv (part 2 of 2) with R39Q, G56S, I70L
notes: as for B6
B8: Hab008L3H5-hFc (Fc fusion)
scFv (part 1 of 2): B7 scFv (part 1 of 2)
scFv (part 2 of 2): B6 scFv (part 2 of 2)
notes: as for B6
B9: mab003 scFv-hFc (Fc fusion)
scFv (part 1 of 2): DVQITQSPSYLAASPGETITINCRASKSISKYLAWYQEKPGKTNKLLIYSGSTLHSGIPSRFSGSGSGTDFTLTISSLEPEDFAIYYCQQHNEYPLTFGGGTKLELK
scFv (part 2 of 2): QVQLQQSGTELMKPGASVKLSCKATGYTFTGNWIEWVKQRPGHGLEWIGEILPGTGSTQYNEKFKGKATFTADPSSNTAYMQLSSLTTEDSAIYYCARWGSTVVAYDYWGQGTTLTVSS
notes: as for B1

Biological target: T1, human DLL3-his protein
Test: ELISA

binding result	Binder
binds	B1
binds	B2
binds	B3
binds	B4
binds	B5
binds	B6
binds	B7
binds	B8
binds	B9

Biological target: T7, human DLL4 protein (human, UniProt Q9NR61 27-524, limits assumed)
T7 construct: bought protein; construct and tag not described; also called hDLL4
T7 sequence (Q9NR61 27-524 limits assumed): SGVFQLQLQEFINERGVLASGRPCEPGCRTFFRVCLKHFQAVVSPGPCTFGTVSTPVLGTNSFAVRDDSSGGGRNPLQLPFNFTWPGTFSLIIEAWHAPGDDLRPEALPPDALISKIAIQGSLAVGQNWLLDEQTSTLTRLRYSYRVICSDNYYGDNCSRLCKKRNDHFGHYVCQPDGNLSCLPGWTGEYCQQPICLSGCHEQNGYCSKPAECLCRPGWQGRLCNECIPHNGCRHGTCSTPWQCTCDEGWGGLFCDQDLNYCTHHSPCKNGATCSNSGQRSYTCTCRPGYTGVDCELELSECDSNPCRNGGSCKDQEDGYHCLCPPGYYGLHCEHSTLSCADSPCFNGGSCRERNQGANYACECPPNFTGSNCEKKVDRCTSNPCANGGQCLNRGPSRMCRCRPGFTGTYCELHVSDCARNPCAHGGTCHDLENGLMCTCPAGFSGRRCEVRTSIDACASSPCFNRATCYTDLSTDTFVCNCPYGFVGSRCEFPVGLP
Test: ELISA, maximum over 0.1-100 nM

Emax of OD450 nm binding value	Binder
0.04 OD450	B1
0.05 OD450	B2
0.05 OD450	B3
0.04 OD450	B4
0.06 OD450	B5
0.05 OD450	B9

Biological target: T2, human DLL1 protein
Test: ELISA, maximum over 0.1-100 nM

Emax of OD450 nm binding value	Binder
0.05 OD450	B1
0.05 OD450	B2
0.05 OD450	B3
0.05 OD450	B4
0.06 OD450	B5
0.06 OD450	B9

Biological target: T3, human DLL3 endogenously expressed on …
Test: FACS, SHP77 and NCI-H82 cells

binding result	Binder
binds	B6
binds	B7
binds	B8

Biological target: T4, human DLL3 on CHO-K1 hDLL3 cells
Test: FACS, CHO-K1 hDLL3 cells

binding result	Binder
binds	B6
binds	B7
binds	B8

Biological target: T5, monkey DLL3 on CHO K1-cyno DLL3 cells
Test: FACS, CHO K1-cyno DLL3 cells

binding result	Binder
binds	B1
binds	B2
binds	B3
binds	B4
binds	B5
binds	B6
binds	B7
binds	B8
binds	B9

Biological target: T6, mouse DLL3 on CHO K1-mDLL3 cells
Test: FACS, CHO K1-mDLL3 cells

binding result	Binder
no binding	B6
no binding	B7
no binding	B8
